{"source": "patent US20180194850A1", "about": "(GENERAL HOSPITAL, published 2018)", "key": {"[1]": {"biological_target": "T1, peptide fragment defined by residues 130-149 of SEQ ID NO: 7 within human TNFR2 (KQEGCRLCAPLRKCRPGFGV) (human)", "T1 construct": "also called linear peptide containing the KCRPG motif", "T1 peptide": "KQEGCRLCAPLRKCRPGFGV", "assay": "comparison of affinity for linear peptides; assay not named in the sentence (linear peptide ELISA, FIG. 13B)", "description": "ELISA was also used to determine linear epitopes present on the extracellular surface of TNFR2.\nLinear peptides corresponding to various regions within the TNFR2 primary sequence were purchased from GenScript (Piscataway, N.J.), diluted in coating buffer and placed on Immulon 4HBX Flat Bottom Microtiter Plates (Thermo Scientific) at a concentration of 1 μg/well. Primary TNFR2 antagonistic antibodies (0.1 μg/well) were incubated with substrates. Secondary antibodies against rodent IgG were used to detect the primary antibodies. Absorbance was measured using the SPECTRAMAX® 190 Absorbance Plate Reader and analyzed with SoftMax Pro 6.3 (Molecular Devices)."}, "[2]": {"biological_target": "T2, EGCRL2…", "T2 sequence (peptide, 2 = Cys(Acm))": "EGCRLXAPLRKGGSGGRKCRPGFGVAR", "assay": "CLIPS peptide-array ELISA [Continued]"}, "S03933": {"biological_target": "T3, S03933", "T3 sequence (peptide)": "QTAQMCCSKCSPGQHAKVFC", "assay": "linear peptide ELISA (absorbance); Affinity +"}}}
{"binder": "antagonistic TNFR2 antibody TNFRAB1 (antibody, V domains shown, Murine monoclonal IgG; For SPR the antibody was biotinylated and captured on streptavidin; also called TNFR2 antagonist 1) VH: EVQLQESGGGLVKPGGSLKLSCAASGFTFSSYVMSWVRQTPEKRLEWVATISSGGSYTYYPDSVKGRFTISRDNAKNTLYLQMSSLRSEDTAMYYCARQRVDGYSSYWYFDVWGAGTAVTVSS VL: DIVLTQSPAIMSASPGEKVTITCSASSSVYYMYWFQQKPGTSPKLWIYSTSNLASGVPVRFSGSGSGTSYSLTISRMEAEDAATYYCQQRRNYPYTFGGGTKLEIKR", "values": [{"measurement": "fold greater affinity than for the peptide of residues 48-67 (…, SEQ ID NO: 18)", "setting": "[1]", "value": 40, "unit": "fold"}, {"measurement": "Raw luminescence data", "setting": "[2]", "value": 358}, {"measurement": "Reading", "setting": "S03933", "value": 0.1}]}
